We go through 1 molecule from article PMC3543869.

In this assay the target is T1, recombinant rat apolipoprotein E (rat), P02650.
T1 chain: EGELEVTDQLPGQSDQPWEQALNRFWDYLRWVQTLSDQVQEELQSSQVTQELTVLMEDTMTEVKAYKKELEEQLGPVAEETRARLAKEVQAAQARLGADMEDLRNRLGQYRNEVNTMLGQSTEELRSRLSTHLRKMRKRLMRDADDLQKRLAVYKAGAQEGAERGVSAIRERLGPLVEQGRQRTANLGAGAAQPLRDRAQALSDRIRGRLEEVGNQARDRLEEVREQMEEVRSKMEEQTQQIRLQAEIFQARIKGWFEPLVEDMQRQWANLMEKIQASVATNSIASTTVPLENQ
The assay is described as follows: SEC. To be noted: remark: other sources report otherwise.

B1: recombinant rat apolipoprotein E, P02650 19-312 (natural protein)
chain: T1 chain
Turning to B1, the stoichiometry N was 4.
